# Source: paper PMC12325741 (2025)
# Read-outs that look alike come from different tables or passages of the source.
# T1: CK19 (ligand protein of the Biacore assay) (UniProt P08727 1-400)
# T1 chain: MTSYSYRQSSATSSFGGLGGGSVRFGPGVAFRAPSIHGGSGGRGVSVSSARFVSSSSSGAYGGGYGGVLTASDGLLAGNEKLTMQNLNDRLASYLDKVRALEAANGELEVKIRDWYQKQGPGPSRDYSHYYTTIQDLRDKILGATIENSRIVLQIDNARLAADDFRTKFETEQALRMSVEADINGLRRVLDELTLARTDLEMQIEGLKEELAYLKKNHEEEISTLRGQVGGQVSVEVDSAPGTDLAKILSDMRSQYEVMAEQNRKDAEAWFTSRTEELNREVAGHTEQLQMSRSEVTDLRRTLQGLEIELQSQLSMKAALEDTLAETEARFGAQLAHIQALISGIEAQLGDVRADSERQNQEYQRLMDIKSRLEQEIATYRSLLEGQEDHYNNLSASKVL
# B1: MANF (analyte of the Biacore assay) (natural protein)
# chain: LRPGDCEVCISYLGRFYQDLKDRDVTFSPATIENELIKFCREARGKENRLCYYIGATDDAATKIINEVSKPLAHHIPVEKICEKLKKKDSQICELKYDKQIDLSTVDLKKLRVKELKKILDDWGETCKGCAEKSDYIRKINELMPKYAPKAASARTDL
# B2: NICD2-His (domain or fragment)
# chain: VIMAKRKRKHGSLWLPEGFTLRRDASNHKRREPVGQDAVGLKNLSVQVSEANLIGTGTSEHWVDDEGPQPKKVKAEDEALLSEEDDPIDRRPWTQQHLEAADIRRTPSLALTPPQAEQEVDVLDVNVRGPDGCTPLMLASLRGGSSDLSDEDEDAEDSSANIITDLVYQGASLQAQTDRTGEMALHLAARYSRADAAKRLLDAGADANAQDNMGRCPLHAAVAADAQGVFQILIRNRVTDLDARMNDGTTPLILAARLAVEGMVAELINCQADVNAVDDHGKSALHWAAAVNNVEATLLLLKNGANRDMQDNKEETPLFLAAREGSYEAAKILLDHFANRDITDHMDRLPRDVARDRMHHDIVRLLDEYNVTPSPPGTVLTSALSPVICGPNRSFLSLKHTPMGKKSRRPSAKSTMPTSLPNLAKEAKDAKGSRRKKSLSEKVQLSESSVTLSPVDSLESPHTYVSDTTSSPMITSPGILQASPNPMLATAAPPAPVHAQHALSFSNLHEMQPLAHGASTVLPSVSQLLSHHHIVSPGSGSAGSLSRLHPVPVPADWMNRMEVNETQYNEMFGMVLAPAEGTHPGIAPQSRPPEGKHITTPREPLPPIVTFQLIPKGSIAQPAGAPQPQSTCPPAVAGPLPTMYQIPEMARLPSVAFPTAMMPQQDGQVAQTILPAYHPFPASVGKYPTPPSQHSYASSNAAERTPSHSGHLQGEHPYLTPSPESPDQWSSSSPHSASDWSDVTTSPTPGGAGGGQRGPGTHMSEPPHNNMQVYA
# What was measured:
# Test in all cases: SPR
# [1] = molecular target: T1, CK19 (ligand protein of the Biacore …)
# [2] = molecular target: T1, CK19 (ligand protein of the Biacore …)
# [3] = molecular target: T1, CK19 (ligand protein of the Biacore …)
# [4] = molecular target: T1, CK19 (ligand protein of the Biacore …)
Binder,Kd [1],koff [2],koff [3],Kd [4]
B1,214 nM,0.0117 s⁻¹,,
B2,,,0.0854 s⁻¹,635 nM
